Reference: paper PMC4731787, “Structural basis for the recognition of two consecutive mutually interacting DPF motifs by the SGIP1 μ homology domain” (Scientific Reports, 2016)
Where no end group is shown, it is not given here. GST = glutathione S-transferase fusion tag

T1: SGIP1 μHD (residues 552 to 828) (Homo sapiens, UniProt Q9BQI5)
T1 construct: the SGIP1 μHD (residues 552 to 828); GST (N, cleaved yes); made in house; host or cells: Escherichia coli BL21-Gold (DE3) or Rosetta2
T1 sequence (Q9BQI5 552-828): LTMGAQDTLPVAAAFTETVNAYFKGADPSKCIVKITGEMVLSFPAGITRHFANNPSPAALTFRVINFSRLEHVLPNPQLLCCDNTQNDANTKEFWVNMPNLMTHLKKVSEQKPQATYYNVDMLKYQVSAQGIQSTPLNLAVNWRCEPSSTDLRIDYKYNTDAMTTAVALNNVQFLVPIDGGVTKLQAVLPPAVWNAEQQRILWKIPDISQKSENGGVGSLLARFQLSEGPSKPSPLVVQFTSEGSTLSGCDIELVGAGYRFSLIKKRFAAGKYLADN

T2: Eps15-530–896 (human, UniProt P42566-1 530-896)
T2 construct: also called C-terminal fragment of human Eps15; source: E. coli, purified (Ni Sepharose, thrombin, Glutathione Sepharose, 3C protease, Superdex 200); not shown: GST, N-terminal, cleaved; His tag, C-terminal, cleaved
T2 sequence (looked up): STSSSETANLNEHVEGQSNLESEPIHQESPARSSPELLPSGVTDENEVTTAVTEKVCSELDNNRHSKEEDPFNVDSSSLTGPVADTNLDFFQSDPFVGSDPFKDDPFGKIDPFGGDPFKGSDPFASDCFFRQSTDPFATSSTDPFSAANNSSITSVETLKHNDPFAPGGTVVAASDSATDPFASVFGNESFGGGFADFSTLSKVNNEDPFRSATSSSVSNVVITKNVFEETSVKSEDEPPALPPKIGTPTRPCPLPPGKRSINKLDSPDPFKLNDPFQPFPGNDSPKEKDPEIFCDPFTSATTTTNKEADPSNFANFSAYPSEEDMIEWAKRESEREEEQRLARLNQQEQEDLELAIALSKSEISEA

B1: appendage domain of human α-adaptin (residues 711 to 955) (domain or fragment, UniProt O95782-2 711-955, looked up)
chain: IGPPIPEADELLNKFVCKNNGVLFENQLLQIGVKSEFRQNLGRMYLFYGNKTSVQFQNFSPTVVHPGDLQTQLAVQTKRVAAQVDGGAQVQQVLNIECLRDFLTPPLLSVRFRYGGAPQALTLKLPVTINKFFQPTEMAAQDFFQRWKQLSLPQQEAQKIFKANHPMDAEVTKAKLLGFGSALLDNVDPNPENFVGAGIIQTKALQVGCLLRLEPNAQAQMYRLTLRTSKEPVSRHLCELLAQQF
notes: also called α-adaptin appendage domain; source: E. coli, purified in the same manner as for the SGIP1 μHD
B2: SGIP1 μ homology domain (residues 552 to 828) (domain or fragment, human, UniProt Q9BQI5-1 552-828, looked up)
chain: T1 sequence (Q9BQI5 552-828)
notes: A SeMet-substituted form (E. coli B834(DE3)) was used only for the structure of the domain alone; also called SGIP1 μHD; μHD; source: E. coli BL21-Gold (DE3) or Rosetta2, purified (Glutathione Sepharose, 3C protease cleavage on the column, Superdex 200)
B3: Eps15-661–720 (domain or fragment, human, UniProt P42566-1 661-720, looked up)
chain: QSTDPFATSSTDPFSAANNSSITSVETLKHNDPFAPGGTVVAASDSATDPFASVFGNESF
notes: Eps15, human, residues 661-720; source: E. coli, purified in the same manner as for the SGIP1 μHD
B4: Eps15-661–790 (domain or fragment, human, UniProt P42566-1 661-790, looked up)
chain: QSTDPFATSSTDPFSAANNSSITSVETLKHNDPFAPGGTVVAASDSATDPFASVFGNESFGGGFADFSTLSKVNNEDPFRSATSSSVSNVVITKNVFEETSVKSEDEPPALPPKIGTPTRPCPLPPGKRS
notes: Eps15, human, residues 661-790 (limits from the fragment's name); source: E. coli, purified in the same manner as for the SGIP1 μHD

Columns and labels:
[1] = biological target: SGIP1 μ homology domain (residues 552 to 828) (human) (UniProt Q9BQI5); assay: ITC; VP-ITC, 25 °C, 50 mM Tris-HCl pH 8.0, 50 mM NaCl; for the majority the μHD (SGIP1, its mutants or FCHo1) in the cell, titrated with Eps15 fragments or peptides, for others the reverse (Supplementary Table 2); repeated twice, global fit with SEDPHAT, single-site or two-site model
[2] = biological target: T1, SGIP1 μHD (residues 552 to 828); assay: ITC of Eps15 fragments with the SGIP1 μHD; assay type: binding; conditions: for -TΔS / ΔG / ΔH: μHD in cell titrated with fragment
Procedure: (§1) For the majority of the ITC experiments, the SGIP1 μHD, its mutants, or the FCHo1 μHD, in 50 mM Tris-HCl buffer (pH 8.0) containing 50 mM NaCl, was loaded in the sample cell, in a volume of 1.42 ml, and titrated with various Eps15-derived fragments or peptides in the same buffer, with an initial 5 μl injection and subsequent 10 μl injections, for a total of 25 injections. The titrations were performed while the samples were stirred at 310 r.p.m. at 25 °C. Each injection was followed by an interval of 4 min, to allow baseline stabilization. For the other ITC experiments indicated in Supplementary Table 2, the Eps15-derived fragments or peptides in the sample cell were titrated with the SGIP1 or FCHo1 μHD. All ITC experiments were performed on a VP-ITC microcalorimeter (MicroCal, LLC) and repeated twice, and the data were processed with the program NITPIC[42]. The two data sets from each ITC experiment were analyzed by global weighted least-squares fitting with the program SEDPHAT[43]. Figures for the ITC data were created with the program GUSSI (http://biophysics.swmed.edu/MBR/software.html). To obtain the values of the traditional stoichiometric parameter N in our ITC data analyses (Supplementary Table 2), we used the values of the parameters of the incompetent fractions of proteins and ligands. […] The values of the incompetent fractions are between 0 and 1, whereas the other parameter affecting the traditional parameter N, the number of sites, was fixed as 1 and 2, for the single- and two-site models, respectively. Thus, in the two-site model, the values of N for the first and second sites are identical in our ITC data analyses (Supplementary Table 2).

SGIP1 µHD A563E = assay: ITC of Eps15 fragments with the SGIP1 μHD A563E mutant; assay type: binding, human; conditions: for Kd: 25 °C, 50 mM Tris-HCl pH 8.0, 50 mM NaCl, mutant μHD in cell titrated with fragment, two runs
Procedure: as §1

SGIP1 µHD A565E = assay: ITC of Eps15 fragments with the SGIP1 μHD A565E mutant; assay type: binding, human; conditions: for Kd: 25 °C, 50 mM Tris-HCl pH 8.0, 50 mM NaCl, mutant μHD in cell titrated with fragment, two runs
Procedure: as §1

Eps15-530–896 = biological target: T2, Eps15-530–896; assay: SEC; analytical gel filtration on Superdex 200, 50 mM Tris-HCl pH 8.0, 50 mM NaCl, 5 mM DTT, 5% glycerol; fractions on SDS-PAGE; Eps15-530–896 and μHD mixed 1:2.4; Eps15-530–896, μHD and appendage domain mixed 1:3:6; conditions: both partners purified
[3] = biological target: B1; assay: ITC; VP-ITC; α-adaptin appendage domain with Eps15 fragments; which of the two was in the cell is not told in the text (Supplementary Table 2); conditions: both partners purified
[4] = biological target: α-adaptin appendage domain (residues 711 to 955); assay: ITC of Eps15 fragments with the α-adaptin appendage domain; assay type: binding, human
[5] = 25 °C, single-site model, ± 68.3% confidence interval

Eps15 two-DPF fragment, Asp of the C-terminal DPF motif replaced with Asn (peptide)
fold reduction of the binding against the unreplaced fragment [1]: 2.4 fold

Eps15 two-DPF fragment, Asp of the N-terminal DPF motif replaced with Asn (peptide)
fold reduction of the binding against the unreplaced fragment [1]: 3.4 fold

GST-Eps15-628–644: GST-tagged Eps15 fragment, residues 628–644, 3 DPF motifs ({GST}-SDPFKDDPFGKIDPFGG)
-TΔS ([2]; 25 °C, single-site model): -2.159 kcal/mol
ΔG ([2]; 25 °C, single-site model): -8.444 kcal/mol
ΔH [2, 5]: -6.285 ± 0.144 kcal/mol
Kd (SGIP1 µHD A563E): below detection limit
Kd (SGIP1 µHD A565E): below detection limit

GST-Eps15-628–654: GST-tagged Eps15 fragment, residues 628–654, 5 DPF motifs ({GST}-SDPFKDDPFGKIDPFGGDPFKGSDPFA)
-TΔS ([2]; 25 °C, single-site model): -1.785 kcal/mol
ΔG ([2]; 25 °C, single-site model): -8.175 kcal/mol
ΔH [2, 5]: -6.39 ± 0.179 kcal/mol
binding to SGIP1 μHD with Ala563 replaced by Glu (in words) (SGIP1 µHD A563E): abolished the binding
Kd (SGIP1 µHD A563E): below detection limit
binding to SGIP1 μHD with Ala565 replaced by Glu (in words) (SGIP1 µHD A565E): abolished the binding
Kd (SGIP1 µHD A565E): below detection limit

B1
binding result (Eps15-530–896): binds

B2
binding result (Eps15-530–896): binds

B3
binding result [3]: binds

B4
binding to the SGIP1 μHD (in words) [2]: could not detect the clear binding
Kd ([2]; 25 °C, 50 mM Tris-HCl pH 8.0, 50 mM NaCl, μHD in sample cell titrated with Eps15 fragment, single-site model, global fit of two runs, ± 68.3% confidence interval): below detection limit
Kd for the α-adaptin appendage domain (in words) [4]: in the nanomolar range
Kd ([4]; 25 °C, appendage domain titrated with Eps15 fragment, single-site model, global fit of two runs, ± 68.3% confidence interval): 690 ± 80 nM
-TΔS ([4]; 25 °C, single-site model): 20.041 kcal/mol
ΔG ([4]; 25 °C, single-site model): -8.401 kcal/mol
ΔH [4, 5]: -28.442 ± 0.319 kcal/mol
binding result [3]: binds
